In US20220235135A1 (COUNCIL OF THE QUEENSLAND INSTITUTE OF MEDICAL RESEARCH, published 2022):
Where a chain is given by its changes, count along the chain named.

B1: P9-10 (antibody, human IgG1, kappa, V domains shown)
VH: EVQLVESGGGLVQPGGSLRLSCAASGFTFDYYVIHWVRQAPGKGLEWVAAIDSYWGDTYYADSVKGRFTISADTSKNTAYLQMNSLRAEDTAVYYCARFYFYGFDYWGQGTLVTVSS
VL: DIQMTQSPSSLSASVGDRVTITCRASQSVSSAVAWYQQKPGKAPKLLIYSASSLYSGVPSRFSGSRSGTDFTLTISSLQPEDFATYYCQQYSWSLWTFGQGTKVEIKR
notes: bivalent monospecific native human full-length IgG1; also called ABS clone P9-10
B2: P9-22 (antibody, human IgG1, kappa, V domains shown)
VH: EVQLVESGGGLVQPGGSLRLSCAASGFTFSSYYIHWVRQAPGKGLEWVAAIYPFSGGTYYADSVKGRFTISADTSKNTAYLQMNSLRAEDTAVYYCARGYYVYVVMDYWGQGTLVTVSS
VL: B1 VL with S92K, W93S, L95P
notes: bivalent monospecific native human full-length IgG1; also called ABS clone P9-22; α-GAL9 (P9-22)
B3: P9-32 (antibody, human IgG1, kappa, V domains shown)
VH: EVQLVESGGGLVQPGGSLRLSCAASGFTFSAYWIHWVRQAPGKGLEWVALIGPDGGYTYYADSVKGRFTISADTSKNTAYLQMNSLRAEDTAVYYCARQASRGLDYWGQGTLVTVSS
VL: B1 VL with Y91W, W93S, S94P, W96H
notes: bivalent monospecific native human full-length IgG1; also called ABS clone P9-32
B4: P9-18 (antibody, human IgG1, kappa, V domains shown)
VH: B1 VH with D30S, Y31W, D52Y, S53P, W55H, G56S, D57K, F99G, F101W, F104M
VL: B1 VL with S92T, W93D, S94A, L95P
notes: the murine IgG backbones were used only in vivo; also called ABS clone P9-18; Clone 18
B5: P9-28 (antibody, human IgG1, kappa, V domains shown)
VH: EVQLVESGGGLVQPGGSLRLSCAASGFTFGFYYIHWVRQAPGKGLEWVAFIDPHGGSTYYADSVKGRFTISADTSKNTAYLQMNSLRAEDTAVYYCARLSYPGVLDYWGQGTLVTVSS
VL: B1 VL with Y91G, S92Y, W93S, S94T, W96V
notes: bivalent monospecific native human full-length IgG1; also called ABS clone P9-28; α-GAL9 (P9-28)
B6: P9-15 (antibody, human IgG1, kappa, V domains shown)
VH: EVQLVESGGGLVQPGGSLRLSCAASGFTFRYYWIHWVRQAPGKGLEWVAAIFPSGGITTYADSVKGRFTISADTSKNTAYLQMNSLRAEDTAVYYCARGWPWGLDYWGQGTLVTVSS
VL: B1 VL with Y91R, S92D, W93R, L95P, W96Y
notes: bivalent monospecific native human full-length IgG1; also called ABS clone P9-15; Clone 15
B7: P9-16 (antibody, human IgG1, kappa, V domains shown)
VH: B2 VH with S31Y, Y33W, A50D, F54S, G57Y, Y100W, V102A, Y103A, V104Y, V105G
VL: B1 VL with S92A, W93L, S94R, L95P, W96L
notes: bivalent monospecific native human full-length IgG1; also called ABS clone P9-16

Biological target: T1, Human GAL9 protein (Galectin-9) (human, UniProt O00182 1-355)
T1 construct: Bought His-tagged protein; also called hGAL9; Human Gal9 His-tag (Acro Biosystems Cat #LG9-H5244)
Assay: Octet BLI, IgG1 on biosensor, GAL9 analyte dilution series, global fit (monovalent affinity)
Experimental: To measure qualitative binding affinity in the GAL9 binder discovery campaigns, IgG1 reformatted binders were immobilized to a biosensor on an Octet (Pall ForteBio) biolayer interferometer.
Soluble GAL9 antigen was then added to the system and binding measured. […] Octet kinetic analysis software was used to calculate the kinetic and equilibrium binding constants based on the rate of association and dissociation curves. Analysis was performed globally (global fit) where kinetic constants were derived simultaneously from all analyte concentration included in the experiment.

T1 sequence (O00182 whole entry): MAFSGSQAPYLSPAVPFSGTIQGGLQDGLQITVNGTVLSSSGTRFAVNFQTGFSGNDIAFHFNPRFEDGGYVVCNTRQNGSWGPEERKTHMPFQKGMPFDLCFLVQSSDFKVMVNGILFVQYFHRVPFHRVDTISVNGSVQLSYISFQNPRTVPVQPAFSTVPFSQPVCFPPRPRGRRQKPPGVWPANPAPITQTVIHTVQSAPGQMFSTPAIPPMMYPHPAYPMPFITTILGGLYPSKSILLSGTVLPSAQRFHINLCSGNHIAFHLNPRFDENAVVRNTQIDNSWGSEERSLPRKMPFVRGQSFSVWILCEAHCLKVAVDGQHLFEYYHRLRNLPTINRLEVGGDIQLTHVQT

Binder | Kd [nM]
B1 | 5.77
B2 | 4.85
B3 | 1.08
B4 | 6.24
B5 | 3.36
B6 | 2.21
B7 | 2.87
